To fix the notation:
B3: hD52 bait (GAL4 DNA-binding domain fusion, pAS2-1hD52) (other)
chain: MKLLSSIEQACDICRLKKLKCSKEKPKCAKCLKNNWECRYSPKTKRSPLTRAHLTEVESRLERLEQLFLLIFPREDLDMILKMDSLQDIKALLTGLFVQDNVNKDAVTDRLASVETDMPLTLRQHRISATSSSEESSNKGQRQLTVSMDRGEQGLLRTDPVPEEGEDVAATISATETLSEEEQEELRRELAKVEEEIQTLSQVLAAKEKHLAEIKRKLGINSLQELKQNIAKGWQDVTATSAYKKTSETLSQAGQKASAAFSSVGSVITKKLEDVKNSPTFKSFEEKVENLKSKVGGTKPAGGDFGEVLNSAANASATTTEPLPEKTQESL
notes: Fusion expressed in yeast; also called full-length hD52 bait

The target in assay [1] is B3. Nature of the assay: yeast two-hybrid screening of a human breast carcinoma cDNA library in Hf7c (His+). Here is the method:
(§1) Transformants were plated onto solid SD/-His-Trp-Leu (incorporating 35 mM 3-AT in the case of Y190 transformants) and incubated for up to 14 days at 30° C. After 3 initial days of growth, plates were inspected daily, and His+ colonies were transferred to SD/-His-Trp-Leu +0.07 M potassium phosphate pH 7+40 µg/ml X-gal plates which incorporated 35 mM 3-AT in the case of Y190 co-transformants. Colonies which remained His+, and in the case of Y190 co-transformants, were also lacZ+, were re-streaked onto fresh plates to check that all colonies were of uniform phenotype. After 6 days incubation at 30° C., yeast colonies were directly harvested, and plasmid DNA was isolated and used to transfect XL1 Blue. Mini-preparations of plasmid DNA were performed for at least 5 XL1 Blue colonies per transfection, with the results of restriction digests differentiating potential interactors from bait plasmids. […] Phenotypes of resulting co-transfectants were assayed quantitatively and/or qualitatively as described above.

Assay [2] concerns the target T1, hD53 interactor (GAL4 activation domain fusion, pACT2hD53) (human, UniProt P04386 768-881 (Saccharomyces cerevisiae entry)).
T1 construct: range 768-881
T1 sequence: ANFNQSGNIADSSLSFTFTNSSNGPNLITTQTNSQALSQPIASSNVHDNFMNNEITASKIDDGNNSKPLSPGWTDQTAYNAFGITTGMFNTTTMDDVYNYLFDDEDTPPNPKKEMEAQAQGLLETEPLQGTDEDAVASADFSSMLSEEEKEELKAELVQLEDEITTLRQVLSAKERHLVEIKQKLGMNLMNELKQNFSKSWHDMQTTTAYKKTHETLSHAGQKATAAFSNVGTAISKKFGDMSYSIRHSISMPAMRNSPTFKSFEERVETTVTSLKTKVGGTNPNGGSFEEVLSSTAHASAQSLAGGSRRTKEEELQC
Nature of the assay: yeast two-hybrid in Y190, β-galactosidase assay. Here is the method: Interactions between baits and interactors were assessed by qualitatively and/or quantitatively determining HIS3 and lacZ reporter gene activity in Y190 co-transfectants. Reporter gene activities were assessed qualitatively by observing the growth and color development of Y190 co-transfectants on solid SD media lacking His, Trp and Leu (SD/-His-Trp-Leu), and incorporating 0.07 M potassium phosphate pH 7, 35 mM 3-AT, and 40 µg/ml X-gal. For quantitative assessment of interactions, β-galactosidase activity was measured using the substrate o-nitrophenyl β-D-galactopyranoside (ONPG) in liquid cultures (SD/-His-Trp-Leu +35 mM 3-AT) of Y190 co-transfectants.

Assay [3] concerns the target T2, eukaryotic initiation factor 4AII library interactor (pAD-GAL4 construct, DNA Database of Japan accession no. … (human, UniProt P04386 761-881; Q14240 1-407, limits assumed).
T2 construct: False positive of the Hf7c screen
Description: yeast two-hybrid, retransfection of Hf7c. Here is the method:
as §1

The target in assay [4] is T3, histidyl t-RNA synthetase library interactor (pAD-GAL4 construct, EBML accession no. Z 11518) (human, UniProt P04386 761-881; P12081 2-509, limits assumed).
T3 construct: False positive of the Hf7c screen
T3 sequence (looked up): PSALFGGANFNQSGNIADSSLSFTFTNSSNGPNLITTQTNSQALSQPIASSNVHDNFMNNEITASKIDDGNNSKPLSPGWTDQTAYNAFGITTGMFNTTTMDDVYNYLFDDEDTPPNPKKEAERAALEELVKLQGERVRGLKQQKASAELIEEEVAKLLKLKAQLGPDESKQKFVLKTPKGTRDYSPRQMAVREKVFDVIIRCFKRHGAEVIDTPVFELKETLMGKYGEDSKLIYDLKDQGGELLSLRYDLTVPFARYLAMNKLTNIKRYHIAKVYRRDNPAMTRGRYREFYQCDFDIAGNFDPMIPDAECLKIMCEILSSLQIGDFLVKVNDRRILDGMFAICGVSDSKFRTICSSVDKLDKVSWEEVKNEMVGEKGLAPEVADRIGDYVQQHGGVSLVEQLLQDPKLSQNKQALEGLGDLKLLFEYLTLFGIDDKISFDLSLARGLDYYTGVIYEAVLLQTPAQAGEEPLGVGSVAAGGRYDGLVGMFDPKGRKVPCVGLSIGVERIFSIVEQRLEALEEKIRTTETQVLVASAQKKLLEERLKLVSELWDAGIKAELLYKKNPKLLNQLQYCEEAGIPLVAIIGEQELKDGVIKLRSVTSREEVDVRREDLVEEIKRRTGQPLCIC
Nature of the assay: yeast two-hybrid, retransfection of Hf7c. Here is the method: as §1

In assay [5] the target is B3. Nature of the assay: yeast two-hybrid, retransfection of Hf7c. Here is the method:
as §1

The target in assay [6] is T4, hD53 bait (GAL4 DNA-binding domain fusion, pAS2-1hD53) (human, UniProt P04386 1-147 (Saccharomyces cerevisiae entry)).
T4 construct: Fusion expressed in yeast; also called full-length hD53 bait
Description: yeast two-hybrid screening of a human breast carcinoma cDNA library in Y190 (His+ lacZ+).

Assay [7] concerns the target T5, hD54+ins2 interactor (GAL4 activation domain fusion, pACT2hD54+ins2) (human, UniProt P04386 768-881 (Saccharomyces cerevisiae entry)).
T5 construct: range 768-881
Nature of the assay: yeast two-hybrid, Y190 co-transfectants, HIS3/lacZ reporters; interactor (GAL4-AD fusion) against bait (GAL4-DB fusion). How it is done:
(§2) Interactions between baits and interactors were assessed by qualitatively and/or quantitatively determining HIS3 and/or lacZ reporter gene activity in Y190 co-transfectants.
(§3) Interactions between D52-like proteins within the yeast two-hybrid system, as measured by quantitative β-galactosidase assays. […] Three (or two*) colonies from each co-transfected Y190 strain were cultured in the absence of histidine, and assayed separately for β-galactosidase activity (see Methods). The mean number of β-galactosidase activity units obtained for each co-transfection is presented, ± the standard error.

The target of assay [8] is T6, mD52(1-163) interactor (GAL4 activation domain fusion, pACT2mD52(1-163)) (mouse, UniProt P04386 768-881 (Saccharomyces cerevisiae entry)).
T6 construct: range 768-881
T6 sequence: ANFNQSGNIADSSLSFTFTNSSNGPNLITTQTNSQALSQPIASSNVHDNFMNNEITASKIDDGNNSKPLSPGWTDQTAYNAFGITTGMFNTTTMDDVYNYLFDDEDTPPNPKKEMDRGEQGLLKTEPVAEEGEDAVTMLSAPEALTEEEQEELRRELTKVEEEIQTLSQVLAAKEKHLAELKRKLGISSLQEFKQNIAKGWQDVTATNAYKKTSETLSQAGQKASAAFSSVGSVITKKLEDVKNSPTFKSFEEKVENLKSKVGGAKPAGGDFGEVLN
Described as above. Here is the method: as §2, §3

For assay [9], the target named is T1, hD53 interactor (GAL4 activation domain …). The description is as above. How it is done: as §2, §3
Assay [10] concerns the target T7, hD54-ins2 interactor (GAL4 activation domain fusion, pACT2hD54-ins2) (human, UniProt P04386 768-881 (Saccharomyces cerevisiae entry)).
T7 construct: range 768-881
Described as above. How it is done:
as §2, §3

Assay [11] addresses T8, hD52 interactor (GAL4 activation domain fusion, pAD-GAL4hD52) (human, UniProt P04386 761-881 (Saccharomyces cerevisiae entry)).
T8 construct: range 761-881; also called hD52^c
T8 sequence: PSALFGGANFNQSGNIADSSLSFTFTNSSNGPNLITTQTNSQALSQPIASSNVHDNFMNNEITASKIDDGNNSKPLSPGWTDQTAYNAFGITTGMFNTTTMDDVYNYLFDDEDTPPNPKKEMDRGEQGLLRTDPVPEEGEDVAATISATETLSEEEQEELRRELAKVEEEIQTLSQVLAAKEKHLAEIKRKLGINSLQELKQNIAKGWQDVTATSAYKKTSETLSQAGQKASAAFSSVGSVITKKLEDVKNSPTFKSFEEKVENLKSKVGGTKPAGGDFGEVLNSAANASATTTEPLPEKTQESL
Described as above. Here is the method:
as §2, §3

Data on 6 molecules can be found in patent US6458943 (INSTITUT NATIONAL DE LA SANTE ET DE LA RECHERCHE MEDICALE, dated 2002).

B1: hD52 library interactor, pAD-GAL4 clone beginning at nt 60 of the hD52 cDNA (<Met1) (other)
chain: PSALFGGANFNQSGNIADSSLSFTFTNSSNGPNLITTQTNSQALSQPIASSNVHDNFMNNEITASKIDDGNNSKPLSPGWTDQTAYNAFGITTGMFNTTTMDDVYNYLFDDEDTPPNPKKEMDRGEQGLLRTDPVPEEGEDVAATISATETLSEEEQEELRRELAKVEEEIQTLSQVLAAKEKHLAEIKRKLGINSLQELKQNIAKGWQDVTATSAYKKTSETLSQAGQKASAAFSSVGSVITKKLEDVKNSPTFKSFEEKVENLKSKVGGTKPAGGDFGEVLNSAANASATTTEPLPEKTQESL
notes: range 761-881; also called nt 60 (<Met^1)
B1: the binding result in assay [1] is recorded as “binds”.

B2: mD52(1-95) bait (GAL4 DNA-binding domain fusion, pAS2-1mD52(1-95)) (other)
chain: MKLLSSIEQACDICRLKKLKCSKEKPKCAKCLKNNWECRYSPKTKRSPLTRAHLTEVESRLERLEQLFLLIFPREDLDMILKMDSLQDIKALLTGLFVQDNVNKDAVTDRLASVETDMPLTLRQHRISATSSSEESSNKGQRQLTVSMDRGEQGLLKTEPVAEEGEDAVTMLSAPEALTEEEQEELRRELTKVEEEIQTLSQVLAAKEKHLAELKRKLGISSLQEFKQNIAKGWQDVTATNA
notes: also called N-terminal half of mD52
In the case of B2, in assay [2], the binding result was “binds”.
As to B3, the binding result in [3] and in [4] was “no binding” in each case.

B4: RING10 proteasome subunit library interactor (pAD-GAL4 construct, GenBank accession no. X62598) (other, UniProt P04386 761-881, looked up)
chain: PSALFGGANFNQSGNIADSSLSFTFTNSSNGPNLITTQTNSQALSQPIASSNVHDNFMNNEITASKIDDGNNSKPLSPGWTDQTAYNAFGITTGMFNTTTMDDVYNYLFDDEDTPPNPKKETTTLAFKFQHGVIAAVDSRASAGSYISALRVNKVIEINPYLLGTMSGCAADCQYWERLLAKECRLYYLRNGERISVSAASKLLSNMMCQYRGMGLSMGSMICGWDKKGPGLYYVDEHGTRLSGNMFSTGSGNTYAYGVMDSGYRPNLSPEEAYDLGRRAIAYATHRDSYSGGVVNMYHMKEDGWVKVESTDVSDLLHQYREANQ
notes: False positive of the Hf7c screen
On to B4, for which the binding result in assay [5] was “no binding”.

B5: hD53 library interactor, pAD-GAL4 clone beginning at nt 204 of the hD53 cDNA (Leu9) (other)
chain: PSALFGGANFNQSGNIADSSLSFTFTNSSNGPNLITTQTNSQALSQPIASSNVHDNFMNNEITASKIDDGNNSKPLSPGWTDQTAYNAFGITTGMFNTTTMDDVYNYLFDDEDTPPNPKKELETEPLQGTDEDAVASADFSSMLSEEEKEELKAELVQLEDEITTLRQVLSAKERHLVEIKQKLGMNLMNELKQNFSKSWHDMQTTTAYKKTHETLSHAGQKATAAFSNVGTAISKKFGDMSYSIRHSISMPAMRNSPTFKSFEERVETTVTSLKTKVGGTNPNGGSFEEVLSSTAHASAQSLAGGSRRTKEEELQC
notes: range 761-881; The clone lacks hD53 residues 1-8 (starts at Leu9); Found with the hD53 bait in Y190 and with the hD52 bait in Hf7c; also called nt 204 (Leu^9)
As for B5, the binding result in assay [1] and in assay [6] was “binds” each time.

B6: mD52 bait (GAL4 DNA-binding domain fusion, pAS2-1mD52) (other, not shown: small tags and cut ends)
chain: MDRGEQGLLKTEPVAEEGEDAVTMLSAPEALTEEEQEELRRELTKVEEEIQTLSQVLAAKEKHLAELKRKLGISSLQEFKQNIAKGWQDVTATNAYKKTSETLSQAGQKASAAFSSVGSVITKKLEDVKNSPTFKSFEEKVENLKSKVGGAKPAGGDFGEVLNSTANATSTMTTEPPPEQMTESP
notes: Fusion expressed in yeast; also called full-length mD52 bait
B6: the binding result in [7], in [8], in assay [9], in assay [10] and in [11] was “binds” each time.
